Results taken from patent US20250302962A1, “BIOCONJUGATE COMPRISING A PHOTOSENSITIZER UNIT, METHOD FOR ITS PREPARATION AND USE THEREOF” (UNIVERSITE DE BORDEAUX, priority 2021, published 2025).

B1: TT1-ELP: phthalocyanine TT1 coupled by CuAAC triazole linker to the N-terminus of ELP (SEQ ID No: 11) (conjugate)
chain: MWVPGVGVPGMGVPGVGVPGVGVPGVGVPGMGVPGVGVPGVGVPGVGVPGMGVPGVGVPGVGVPGVGVPGMGVPGVGVPGVGVPGVGVPGMGVPGVGVPGVGVPGVGVPGMGVPGVGVPGVGVPGVGVPGMGVPGVGVPGVGVPGVGVPGMGVPGVGVPGVGVPGVGVPGMGVPGVGVPGVGVPGVGVPGMGVPGVGVPGVG
modifications: N-terminal phthalocyanine TT1 via triazole; Elastin-like polypeptide

What was measured:
Format in all cases: physicochemical
[1] = Singlet oxygen quantum yield of the phthalocyanine; conditions: measured in dimethylsulfoxide
Excerpt: It has particularly outstanding photo-physical properties. […] Singlet oxygen quantum yield of this phthalocyanine, measured in dimethylsulfoxide, mounts up to ϕΔ=0.72. The presence of the tert-butyl groups not only minimizes the formation of molecular aggregates, but also increases the solubility of the compound in organic solvents.

[2] = Turbidity assay, onset transition temperature (Tt) of ELP and TT1 bioconjugates in PBS; conditions: for Tt in PBS: PBS pH 7.4, onset transition temperature
Experimental: UV-Vis spectroscopy: The transition temperatures (Tt) are determined by following the turbidity at 600 or 500 nm absorption versus temperature on Agilent Cary 100 UV-Vis spectrophotometer equipped with a multicell thermo-electric temperature controller. Turbidity is measured over a temperature range from 10 to 60° C. at 1° C. min^−1 of a scan rate before and after the conjugation reaction at three concentrations of phthalocyanine (10, 20 and 30 μM) in phosphate buffer (PBS, pH 7.4).
The thermo-responsive character of ELP, before and after TT1 conjugation, is measured by turbidity assays in phosphate buffer (PBS, pH 7.4) following the absorbance at 600 and 500 nm, respectively, over a temperature range from 10 to 60° C.
The same analysis is carried out for TT1-ELP(O) (obtained by chemical oxidation of methionyl groups) and TT1-ELP^PhOx (obtained by oxidation triggered by photo-irradiation of methionyl groups).

[3] = Dynamic light scattering size distribution of TT1-ELP and TT1-ELP^PhOx
Experimental: Dynamic light scattering: The DLS measurements of TT1-ELP (at 20° C. and 37° C.) and TT1-ELP^PhOx (at 37° C.) are performed on a Nano ZS 90 instrument (HeNe laser 632.8 nm, Malvern) at a 90° angle at a constant position in the cuvette (constant scattering volume at 30 μM concentration in 1×PBS, pH 7.4). The values of Z-average hydrodynamic diameter (DH) and polydispersity index (PDI) are obtained from the 2nd order cumulant fit using a CONTIN-like algorithm.
In order to mimic the self-assembly and photooxidation-triggered disassembly profile of TT1-ELP, dynamic light scattering (DLS) measurements are performed in physiological conditions (PBS pH 7.4 at 37° C.) on TT1-ELP and TT1-ELP^PhOx.
Due to the stacking tendency of TT1 upon direct dissolution of TT1-ELP in PBS at ambient temperature, 60 nm micelles with narrow size distribution (PDI 0.2) are observed in DLS measurement conducted at 165° angle via 657 nm laser (FIG. 5-A)).

[4] = direct dissolution in PBS, ambient temperature, 165° angle, 657 nm laser

| Molecule | Singlet oxygen quantum yield ϕΔ [1] | Tt in PBS ([2]; 10 μM) | Tt in PBS ([2]; 20 μM) | solubility ([2]; 10, 20 and 30 μM in PBS pH 7.4 at 10° C.) | drop of Tt after conjugation of TT1 ([2]; versus ELP, PBS pH 7.4) | particle size (hydrodynamic diameter) ([3]; above Tt, 37° C., PBS pH 7.4) | PDI [3, 4] | micelle size [3, 4] | aggregation state by DLS ([3]; temperature dropped back to 20° C., PBS pH 7.4) |
| --- | --- | --- | --- | --- | --- | --- | --- | --- | --- |
| 9(10),16(17),23(24)-Tri-tert-butyl-2-carboxy-5,28:14,19-diimino-7,12:21,26-dinitrilotetrabenzo[c,h,m,r][1,6,11,16]tetraazacycloeicosinato-(2)-N^29,N^30,N^31,N^32zinc(II) [TT1] | 0.72 |  |  |  |  |  |  |  |  |
| B1 |  | 29 °C | 28 °C | fully soluble | approximately 10 °C | 1.5 μm | 0.2 | 60 nm | disassembly of these aggregates |
